Data reported in patent US7732568B2, “Methods for preventing and treating Alzheimer's disease” (AFFIRIS Forschungs-und Entwicklungs GmbH, priority 2003, dated 2010).
Each block holds one binder with its values, some of them ahead of it.

How the values were obtained:
[1] = biological target: DAEFRH-specific monoclonal antibody (mAb) produced according to example 1; assay: competition ELISA: soluble peptide vs plate-bound DAEFRH-C-BSA for biotinylated mAb, FIG. 5
[2] = biological target: DAEFRH-specific monoclonal antibody (mAb) produced according to example 1; assay: competition ELISA: soluble peptide vs plate-bound DAEFRH-C-BSA for biotinylated mAb, FIG. 3
[3] = biological target: DAEFRH-specific monoclonal antibody (mAb) produced according to example 1; assay: competition ELISA: soluble peptide vs plate-bound DAEFRH-C-BSA for biotinylated mAb, FIG. 4
[4] = biological target: DAEFRH-specific monoclonal antibody (mAb) produced according to example 1; assay: competition ELISA: soluble peptide vs plate-bound DAEFRH-C-BSA for biotinylated mAb, FIG. 2

B1: Peptide 1237 DRELKI (peptide)
peptide: DRELKIC
IC50 [1]: > 5 µg/mL

B7: Peptide 1236 DKELKI (peptide)
peptide: DKELKIC
IC50 [1]: > 5 µg/mL

B8: Peptide 3001 DKELRI (peptide)
peptide: DKELRIC
IC50 [4]: < 0.5 µg/mL

B9: Peptide 1239 EYEFRG (peptide)
peptide: EYEFRGC
IC50 [1]: > 0.5 µg/mL

B10: Peptide 3002 DWELRI (peptide)
peptide: DWELRIC
IC50 [4]: > 0.5 µg/mL

Now from value to binder:

IC50 [2]: < 5 µg/mL
B2: Peptide 3008 ELEFRG (peptide)
peptide: ELEFRGC

IC50 [3]: < 0.4 µg/mL
B3: Peptide 4002 SWEFRT (peptide)
peptide: SWEFRTC

IC50 [2]: < 5 µg/mL
B4: Peptide 3009 SFEFRG (peptide)
peptide: SFEFRGC

IC50 [4]: < 0.5 µg/mL
B5: Peptide 3006 EAEFRG (peptide)
peptide: EAEFRGC

IC50 [4]: > 0.5 µg/mL
B6: Peptide 3005 YAEFRG (peptide)
peptide: YAEFRGC
